Here are results for 1 molecule from article doi:10.1101/2021.11.28.470279.

The target in this data set is ΔAPE1 E96Q/D210N (catalytically dead, crystallization construct) (Homo sapiens (human), UniProt P27695 44-318, C138A;E96Q;D210N). In words: crystal structure.
ΔAPE1 E96Q/D210N (catalytically dead, crystallization construct), sequence (P27695 44-318 E96Q/C138A/D210N): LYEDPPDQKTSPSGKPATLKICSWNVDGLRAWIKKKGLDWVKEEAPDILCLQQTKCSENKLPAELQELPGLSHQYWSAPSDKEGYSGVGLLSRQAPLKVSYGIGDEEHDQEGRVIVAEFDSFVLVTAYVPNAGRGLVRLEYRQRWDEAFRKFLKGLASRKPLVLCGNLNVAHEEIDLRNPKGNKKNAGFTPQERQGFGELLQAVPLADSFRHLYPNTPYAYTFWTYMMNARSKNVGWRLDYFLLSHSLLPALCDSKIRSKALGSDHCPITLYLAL

B1: 21-mer nicked 3'-8oxoG opposite C (crystal) (dsDNA)
DNA 1: GGATCCGTCGACCGCATCAGC
DNA 2: GCTGATGCGG
DNA 3: TCGACGGATCC
modifications: 8-oxoG at 3' end of upstream strand (strand 2, written G); 5'-phosphate on downstream strand (strand 3)
In the case of B1, the binding result is reported as “binds”.
